Measured values: patent US20260055200A1, “COMBINATION THERAPIES” (Alligator Bioscience AB, priority 2022, published 2026)
Read-outs that look alike come from different tables or passages of the source.

What was measured:
[1] = tested on: whole blood transcriptome; assay: RNA-sequencing of peripheral whole blood of MB49 tumour-bearing hCD40tg mice; type: in vivo, mouse; settings: for Differentially expressed genes, p. adj < 0.05 / Differentially expressed genes, p. adj < 0.05 & FC > 2: of 14485 total genes
Description: Peripheral blood was collected from the mice at the end of the first cycle and subjected to RNA-sequencing to identify pharmacodynamic biomarkers. RNA was extracted from whole blood after red blood cell lysis using GLOBINclear™ Kit, mouse/rat (AM1981, Invitrogen), and Mouse RiboPure™-Blood RNA Isolation Kit (AM1951, Invitrogen) according to the manufacturer's instruction. Purified RNA was stored in RNase-free microfuge tubes (AM12425, Invitrogen), and frozen at −80 C until further use.
RNA library preparation and sequencing was performed by the Center for Translational Genomics (CTG, Lund University). RNA integrity was analyzed with the TapeStation 4200 (Agilent Technologies), using Agilent RNA ScreenTape and reagents (5067-5576, 5067-5577, Agilent Technologies). RNA concentration was analyzed with the Qubit Flex (Q33327 Invitrogen Thermo Fisher Scientific), using the QuantIT RNA HS Assay Kit (Q33140, Life Technologies). cDNA sequencing libraries were prepared using TruSeq® Stranded mRNA Library Prep kit (20020594, Illumina). The libraries were sequenced in a NovaSeq 6000 System (20012850, Illumina), using the NovaSeq 6000 SP Reagent Kit, 300 cycles v1.5 20028400). The reads were aligned to the mouse reference genome GRCm38 (mm10) using the STAR software (v 2.5.0a.13).
R (v4.0.3) and R studio (v1.4.1103) were used to perform quality control and thresholding, normalization, dimensionality reduction, and visualization as well as differential gene expression analysis. Protein coding genes with a minimum of 5 reads in 3 or more samples were kept for analysis. For data visualization, filtered raw counts were normalized using the variance-stabilizing-transformation method in the DESeq2 package (version 1.38.3).
Principal component analysis (PCA) was used to visualize the data, and assess the effects of the treatment at transcriptomic level.
To identify differentially expressed genes among treatment groups, filtered raw counts were normalized using the median of ratios method in the DESeq2 package. Treatment groups were compared using the negative binomial Wald's test (adjusted-p.value [adj-p.val]<0.05, fold change>2).
Pathway enrichment analysis was performed using EnrichR (v3.0) by querying differentially expressed genes among treatment groups onto the gene ontology database (GO, GO_bioprocess_2018). Re-occurring and highly ranked pathways (adj.p-value<0.05) were selected and harmonized throughout the samples using gene set variation transformation (GSVA). The resulting GSVA scores were plotted as a spider plot for pathway activity comparison among the groups.

[2] = tested on: advanced stage solid malignancies; settings: cited from earlier work
[3] = tested on: IFN-γ, MCP-1, B cell margination, B cell activation; assay: OPTIMIZE-1 peripheral blood pharmacodynamics (cytokines/chemokines, immunophenotyping); type: in vivo, human; settings: 450 and 900 μg/kg mitazalimab
Description: The aim with the pharmacodynamic biomarkers is to characterize changes in intratumoural and systemic immune activation associated with mode of action of mitazalimab and correlate pharmacodynamic effects with clinical response. Disease progression and treatment response will also be followed with liquid biopsies, analysing biomarkers such as Carbohydrate antigen 19-9 (CA19-9) and circulating tumour DNA (ctDNA). All biomarker analyses in blood and tumour biopsies may be exploratory in nature. All exploratory analyses were performed at a fit-for-purpose laboratory, as the data from the analyses are for scientific use and decision making only. […]
Different types of blood samples will be taken and the following pharmacodynamic biomarkers may be evaluated: • Cytokines and chemokines: Serum samples are to be analysed for levels of cytokines and chemokines involved in the immune activation of mitazalimab, including but not limited to IFN-γ, TNF-α, IL12p70, IL-6, MCP-1, IP-10, MIP-1α, MIP-1β and IL-8; e.g., using a 30-plex kit with Luminex, MSD or similar. • Immune phenotyping: Whole blood samples will be used for immunophenotyping of whole blood for quantification of immune cell populations and immune cell activation directly or indirectly involved with immune activation of mitazalimab using flow cytometry. […]

B1: Mitazalimab: agonistic, human monoclonal (IgG1) antibody targeting CD40 (antibody, chains of the INN, looked up, V domains shown)
VH: EVQLLESGGGLVQPGGSLRLSCAASGFTFSTYGMHWVRQAPGKGLEWLSYISGGSSYIFYADSVRGRFTISRDNSENALYLQMNSLRAEDTAVYYCARILRGGSGMDLWGQGTLVTVSS
VL: QSVLTQPPSASGTPGQRVTISCTGSSSNIGAGYNVYWYQQLPGTAPKLLIYGNINRPSGVPDRFSGSKSGTSASLAISGLRSEDEADYYCAAWDKSISGLVFGGGTKLTVL
[1]; alone or in combination with FOLFIRINOX
  expression of genes involved in response to type-1 IFN and TLR signaling: high expression
[1]; vs Folfirinox
  Differentially expressed genes, p. adj < 0.05: 3953
  Differentially expressed genes, p. adj < 0.05 & FC > 2: 1717
[1]; vs Mita-Folfirinox
  Differentially expressed genes, p. adj < 0.05: 453
  Differentially expressed genes, p. adj < 0.05 & FC > 2: 221
[1]; vs untreated
  Differentially expressed genes, p. adj < 0.05: 2114
  Differentially expressed genes, p. adj < 0.05 & FC > 2: 849
[2]; 400 μg/kg intratumoural
  best response: stable disease (SD) in one patient with renal cell carcinoma
[2]; IV administration
  patients with increases in liver enzymes or bilirubin: 3 of 5
[2]; both intratumoural: grade 3 abdominal pain, grade 3 cholecystitis
  dose-limiting toxicities (DLTs) observed: Two
[2]; in vivo
  maximum tolerated dose (MTD): No maximum tolerated dose (MTD) was identified
[2]; intratumoural administration
  patients with increases in liver enzymes or bilirubin: 9 of 18
[3]
  cytokines and chemokines (IFN-γ, MCP-1) in peripheral blood: increases in peripheral blood were observed
